The record followed here is article PMC7386315.

The subject of data set [1] is MoCdc5-DBD (Magnaporthe oryzae P131). The data set is described as follows: BLI. For orientation: BLI is a label-free optical method that tracks binding on a fibre tip over time.
For data set [2], the system named is AtCdc5-DBD (Arabidopsis thaliana). The data set is described as follows: BLI.

In the case of U6 RNA, the Kd (in general, the equilibrium constant for the complex coming apart) in data set [1] was 1.38 10^-8 M.

As for MIR167a, the figures for the Kd in data set [2] and in data set [1] were 8.98 10^-8 M and 5.17 10^-8 M, respectively.
